Tests used:
[1] = target: chimpanzee CD4 on PBMC (chimpanzee) (UniProt P16004); assay: FACS of chimp X301 PBMC stained with Leu3a-PE only
[2] = target: chimpanzee CD4 on PBMC (chimpanzee) (UniProt P16004); assay: FACS of chimp X301 PBMC, sequential staining: 1st Leu3a binding, 2nd B4 exposure
[3] = target: chimpanzee CD4 on PBMC (chimpanzee) (UniProt P16004); assay: FACS of chimp X282 PBMC, sequential staining: 1st Leu3a binding, 2nd B4 exposure
[4] = target: chimpanzee CD4 on PBMC (chimpanzee) (UniProt P16004); assay: FACS of chimp X282 PBMC stained with Leu3a-PE only
[5] = target: chimpanzee CD4 on PBMC (chimpanzee) (UniProt P16004); assay: FACS of chimp X301 PBMC, sequential staining: 1st B4 binding, 2nd Leu3a exposure; competitor B4 prebound
[6] = target: chimpanzee CD4 on PBMC (chimpanzee) (UniProt P16004); assay: FACS of chimp X282 PBMC, sequential staining: 1st B4 binding, 2nd Leu3a exposure; competitor B4 prebound
[7] = target: HIV-1 envelope glycoprotein of isolate HXB2 (X4), on pseudotype virus (HIV-1 (HXB2)) (UniProt P04578); assay: cell-based or functional assay
[8] = target: HIV-1 envelope glycoprotein of isolate 92TH594 (R5/X4), on pseudotype virus (HIV-1 (92TH594)); assay: cell-based or functional assay
[9] = target: HIV-1 envelope glycoprotein of isolate JRCSF (R5), on pseudotype virus (HIV-1 (JRCSF)); assay: cell-based or functional assay

Chain of chimpanzee CD4 on PBMC (chimpanzee) (P16004 26-458): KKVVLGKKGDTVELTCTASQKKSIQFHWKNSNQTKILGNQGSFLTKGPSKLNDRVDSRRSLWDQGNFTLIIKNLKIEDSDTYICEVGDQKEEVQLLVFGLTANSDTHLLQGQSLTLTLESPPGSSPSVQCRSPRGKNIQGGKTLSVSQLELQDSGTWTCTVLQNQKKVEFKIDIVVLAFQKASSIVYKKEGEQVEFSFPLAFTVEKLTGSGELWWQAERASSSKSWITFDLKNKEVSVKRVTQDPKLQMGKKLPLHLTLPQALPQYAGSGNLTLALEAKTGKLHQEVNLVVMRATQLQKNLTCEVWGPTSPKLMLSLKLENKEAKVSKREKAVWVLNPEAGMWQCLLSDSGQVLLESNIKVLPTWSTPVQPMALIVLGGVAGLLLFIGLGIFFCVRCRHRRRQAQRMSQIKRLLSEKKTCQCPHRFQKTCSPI

Row | percent positive PBMC (single label control, Leu3a+) [1] [%] | percent positive PBMC (Leu3a+ B4-) [2] [%] | percent positive PBMC (Leu3a+ B4-) [3] [%] | percent positive PBMC (single label control, Leu3a+) [4] [%] | percent positive PBMC (Leu3a+ B4+) [5] [%] | percent positive PBMC (Leu3a+ B4-) [5] [%] | percent positive PBMC (Leu3a+ B4+) [6] [%] | percent positive PBMC (Leu3a+ B4-) [6] [%] | Substance | IC50 of HIV entry inhibition, pseudotype virus HXB2 (X4), U87-CD4+/CCR5+/CXCR4+ cells [7] [µg/mL] | IC50 of HIV entry inhibition, pseudotype virus 92TH594 (R5/X4), U87-CD4+/CCR5+/CXCR4+ cells [8] [µg/mL] | IC50 of HIV entry inhibition, pseudotype virus JRCSF (R5), U87-CD4+/CCR5+/CXCR4+ cells [9] [µg/mL]
1 | 44 | 0.3 | 0.1 | 25.5 | 3 | 0 | 1.2 | 0 | anti-CD4 monoclonal antibody Leu3a | – | – | –
2 | – | – | – | – | – | – | – | – | monoclonal neutralizing antibody 2F5 | 0.07 | 3 | 4
3 | – | – | – | – | – | – | – | – | monoclonal neutralizing antibody 2G12 | 0.5 | 1.3 | 0.8

Source: US20170369576A1
